According to article PMC12167799, “The role of human Shu complex in ATP-dependent regulation of RAD51 filaments during homologous recombination–associated DNA damage response” (The Journal of Biological Chemistry, 2025):

Target: human RAD51 (human) (UniProt Q06609)
Sequence (Q06609 whole entry): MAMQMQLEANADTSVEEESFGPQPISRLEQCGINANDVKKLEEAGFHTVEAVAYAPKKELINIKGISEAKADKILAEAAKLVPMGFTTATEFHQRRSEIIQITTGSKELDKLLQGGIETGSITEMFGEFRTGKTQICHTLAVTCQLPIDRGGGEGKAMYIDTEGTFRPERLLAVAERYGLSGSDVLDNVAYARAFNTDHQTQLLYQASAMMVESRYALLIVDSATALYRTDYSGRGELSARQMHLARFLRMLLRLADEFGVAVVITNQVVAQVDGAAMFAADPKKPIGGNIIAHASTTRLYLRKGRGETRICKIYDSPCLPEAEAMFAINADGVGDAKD

fluorescence intensity of 5′-6-FAM-labeled RAD51-ssDNA filaments (1 μM RAD51, 15 nM poly-dT39, 2 mM ATP) after addition of 50 nM hSWS1-SWSAP1, 10-s intervals over 60 s: 40%
Substance: human Shu complex hSWS1-SWSAP1, wildtype (from UniProt Q19AV6 1-140; Q6NVH7 1-250)
